# According to patent US7528106B2, “Compositions and methods for treatment of neovascular diseases” (The Scripps Research Institute, priority 2004, dated 2009):
# Tested on: deep retinal vascular network formation in neonatal Balb/C mice
# Test: Neonatal mouse retinal angiogenesis model
# Format: in vivo
# Conditions: for % of eyes with 75-100% inhibition of deep vascular layer / % of eyes with 0-10% inhibition of deep vascular layer / % of eyes with 10-25% inhibition of deep vascular layer / % of eyes with 25-50% inhibition of deep vascular layer / % of eyes with 50-75% inhibition of deep vascular layer: intravitreal P4, read P12
# Description: Description of the Model. Immediately after birth (postnatal day zero; “P0”), retinal vasculature is virtually absent in the mouse. By four weeks after birth (P28) the retina has attained an adult pattern of retinal vessels coincident with the onset of vision. Physiological neovascularization of the retina occurs during this period via a stereotypical, biphasic developmental pattern of angiogenesis. During the primary phase of retinal vascular development, spoke-like peripapillary vessels grow radially from the central retinal artery and vein, becoming progressively interconnected by a capillary plexus that forms between them. This “inner retinal plexus” grows in area, volume and complexity, centrifugally, as a monolayer within the nerve fiber layer during the first seven to ten days following birth.
# The second phase of retinal vessel formation begins between postnatal days 7 (P7) and 10 (P10) when collateral branches sprout from capillaries of the superficial plexus and penetrate into the retina where their tips branch and anastamose laterally to form a planar “deep vascular plexus”. While the deep vascular plexus is in place by P14, it undergoes extensive remodeling from P14 to P21. It is of interest to note that the formation of these vascular networks in the neonatal mouse are strikingly similar to the events occurring in the third trimester human fetus.
# Advantages and Quantification of the Model. The reproducibility of the murine retinal development process and its easy accessibility in neonatal animals provide an opportunity to assess the efficacy of antiangiogenic compounds in a physiologically relevant model of angiogenesis. Additional advantages of the neonatal mouse model are the ability to qualitatively and quantitatively evaluate the angiostatic effect of putative antagonists of angiogenesis. Angiostatic activity was evaluated based upon the degree of angiogenesis in the deep, outer retinal vascular layer (secondary layer) that develops between P8 and P12. The appearance of the inner blood vessel network (primary layer) was evaluated for normal development and signs of toxicity.
# Preparation of Compositions. Peptidomimetic integrin signaling inhibitor Compound (1) is solubilized in PBS at a concentration of about 20 mg/ml in PBS (1× concentration). T2-TrpRS is solubilized in PBS at a concentration of about 0.5 mg/ml (1× concentration). VEGF aptamer (pegaptanib sodium; Compound (2)) is solubilized in PBS at a concentration of about 2 mg/ml (1× concentration) to achieve an injection of approximately 1 μg/eye at 1× concentration. For all combination assays the compounds were prepared at 2 or 3 times the 1× concentration of each material and then combined to produce a final solution containing each individual compound at the same concentration as was used alone (e.g., 1×, 0.5×, 0.25× or 0.1×, as the case may be). For all assays, a single injection of 0.5 μl of PBS solutions of the drugs was administered intravitreally regardless of the number of compounds being injected. As used herein, the term “0.1×” refers to one tenth of the 1× concentration of a given material, “0.25×” refers to one quarter of the 1× concentration of a given material, “0.5×” refers to one half of the 1× concentration of a given material, and so forth for similar designations.
# An in vivo angiogenesis assay in the neonatal mouse (Balb/C, The Jackson Laboratory, Bar Harbor, Me.) was used to evaluate the angiostatic activity of integrin signaling inhibitor Compound (1), T2-TrpRS, and VEGF aptamer Compound (2). Intravitreous injection and retina isolation was performed with a dissecting microscope (SMZ 645, Nikon, Japan). […] The samples (0.5 μl) were injected with a Hamilton syringe fitted with a 32-gauge needle (Hamilton Company, Reno, Nev.). The injection was made between the equator and the corneal limbus. During injection, the location of the needle tip was monitored by direct visualization to determine that it was in the vitreal cavity. […]
# [1] = Table 12, composite data from the Examples, 1× (Compound (2) 0.5× to 1×)
# [2] = Table 13A, 0.25 μg per eye, intravitreal P7, read P12
# [3] = Table 13C low dosing, 0.1x (integrin ant. 1.0 μg, VEGF apt. 0.20 μg, T2-TrpRS 0.025 μg)
molecule,measurement,setting,value
"T2-TrpRS: 43 kDa angiostatic T2 fragment of human tryptophanyl-tRNA synthetase, SEQ ID NO: 1 (protein, homo sapiens) MSAKGIDYDKLIVRFGSSKIDKELINRIERATGQRPHHFLRRGIFFSHRDMNQVLDAYENKKPFYLYTGRGPSSEAMHVGHLIPFIFTKWLQDVFNVPLVIQMTDDEKYLWKDLTLDQAYSYAVENAKDIIACGFDINKTFIFSDLDYMGMSSGFYKNVVKIQKHVTFNQVKGIFGFTDSDCIGKISFPAIQAAPSFSNSFPQIFRDRTDIQCLIPCAIDQDPYFRMTRDVAPRIGYPKPALLHSTFFPALQGAQTKMSASDPNSSIFLTDTAKQIKTKVNKHAFSGGRDTIEEHRQFGGNCDVDVSFMYLTFFLEDDDKLEQIRKDYTSGAMLTGELKKALIEVLQPLIAEHQARRKEVTDEIVKEFMTPRKLSFDFQ",% of eyes with 75-100% inhibition of deep vascular layer,"Ex 10, 0.3× (1×=0.5 mg/ml)",25%
same,% of eyes with 0-10% inhibition of deep vascular layer,"Ex 10, 1× (0.5 mg/ml)",8.3%
same,% of eyes with 10-25% inhibition of deep vascular layer,"Ex 10, 1× (0.5 mg/ml)",16.7%
same,% of eyes with 25-50% inhibition of deep vascular layer,"Ex 10, 1× (0.5 mg/ml)",25%
same,% of eyes with 50-75% inhibition of deep vascular layer,"Ex 10, 1× (0.5 mg/ml)",8.7%
same,% of eyes with 75-100% inhibition of deep vascular layer,"Ex 10, 1× (0.5 mg/ml)",41.7%
same,% of eyes with 0-10% inhibition of deep vascular layer,"Ex 10, 2× (1×=0.5 mg/ml)",8.3%
same,% of eyes with 10-25% inhibition of deep vascular layer,"Ex 10, 2× (1×=0.5 mg/ml)",25%
same,% of eyes with 25-50% inhibition of deep vascular layer,"Ex 10, 2× (1×=0.5 mg/ml)",0%
same,% of eyes with 50-75% inhibition of deep vascular layer,"Ex 10, 2× (1×=0.5 mg/ml)",16.7%
same,% of eyes with 75-100% inhibition of deep vascular layer,"Ex 10, 2× (1×=0.5 mg/ml)",41.7%
same,% of eyes with 0-10% inhibition of deep vascular layer,"Ex 10, 3× (1×=0.5 mg/ml)",66.7%
same,% of eyes with 10-25% inhibition of deep vascular layer,"Ex 10, 3× (1×=0.5 mg/ml)",25%
same,% of eyes with 25-50% inhibition of deep vascular layer,"Ex 10, 3× (1×=0.5 mg/ml)",8.7%
same,% of eyes with 50-75% inhibition of deep vascular layer,"Ex 10, 3× (1×=0.5 mg/ml)",0%
same,% of eyes with 75-100% inhibition of deep vascular layer,"Ex 10, 3× (1×=0.5 mg/ml)",0%
same,% of eyes with 0-10% inhibition of deep vascular layer,"Ex 11, 0.3× (1×=0.5 mg/ml)",33.3%
same,% of eyes with 10-25% inhibition of deep vascular layer,"Ex 11, 0.3× (1×=0.5 mg/ml)",16.7%
same,% of eyes with 25-50% inhibition of deep vascular layer,"Ex 11, 0.3× (1×=0.5 mg/ml)",0%
same,% of eyes with 50-75% inhibition of deep vascular layer,"Ex 11, 0.3× (1×=0.5 mg/ml)",0%
same,% of eyes with 75-100% inhibition of deep vascular layer,"Ex 11, 0.3× (1×=0.5 mg/ml)",50%
same,% of eyes with 0-10% inhibition of deep vascular layer,"Ex 11, 1× (0.5 mg/ml)",14.3%
same,% of eyes with 10-25% inhibition of deep vascular layer,"Ex 11, 1× (0.5 mg/ml)",14.3%
same,% of eyes with 25-50% inhibition of deep vascular layer,"Ex 11, 1× (0.5 mg/ml)",7.1%
same,% of eyes with 50-75% inhibition of deep vascular layer,"Ex 11, 1× (0.5 mg/ml)",14.3%
same,% of eyes with 75-100% inhibition of deep vascular layer,"Ex 11, 1× (0.5 mg/ml)",50%
same,% of eyes with 0-10% inhibition of deep vascular layer,"Ex 11, 2× (1×=0.5 mg/ml)",12.5%
same,% of eyes with 10-25% inhibition of deep vascular layer,"Ex 11, 2× (1×=0.5 mg/ml)",12.5%
same,% of eyes with 25-50% inhibition of deep vascular layer,"Ex 11, 2× (1×=0.5 mg/ml)",12.5%
same,% of eyes with 50-75% inhibition of deep vascular layer,"Ex 11, 2× (1×=0.5 mg/ml)",12.5%
same,% of eyes with 75-100% inhibition of deep vascular layer,"Ex 11, 2× (1×=0.5 mg/ml)",50%
same,% of eyes with 0-10% inhibition of deep vascular layer,"Ex 11, 3× (1×=0.5 mg/ml)",14.3%
same,% of eyes with 10-25% inhibition of deep vascular layer,"Ex 11, 3× (1×=0.5 mg/ml)",14.3%
same,% of eyes with 25-50% inhibition of deep vascular layer,"Ex 11, 3× (1×=0.5 mg/ml)",14.3%
same,% of eyes with 50-75% inhibition of deep vascular layer,"Ex 11, 3× (1×=0.5 mg/ml)",28.5%
same,% of eyes with 75-100% inhibition of deep vascular layer,"Ex 11, 3× (1×=0.5 mg/ml)",28.5%
same,% of eyes with 0-10% inhibition of deep vascular layer,"Ex 11, 5× (1×=0.5 mg/ml)",16.6%
same,% of eyes with 10-25% inhibition of deep vascular layer,"Ex 11, 5× (1×=0.5 mg/ml)",33.3%
same,% of eyes with 25-50% inhibition of deep vascular layer,"Ex 11, 5× (1×=0.5 mg/ml)",33.3%
same,% of eyes with 50-75% inhibition of deep vascular layer,"Ex 11, 5× (1×=0.5 mg/ml)",16.6%
same,% of eyes with 75-100% inhibition of deep vascular layer,"Ex 11, 5× (1×=0.5 mg/ml)",0%
same,"mice having 75-100% inhibition in the deep vascular layer, maximum over doses","Examples 10 and 11, 0.1× to 5×",≤ 50%
same,% of mice with 0-10% inhibition of deep vascular layer,[1],23.9%
same,% of mice with 10-25% inhibition of deep vascular layer,[1],17.4%
same,% of mice with 25-50% inhibition of deep vascular layer,[1],15.2%
same,% of mice with 50-75% inhibition of deep vascular layer,[1],8.7%
same,% of mice with 75-100% inhibition of deep vascular layer,[1],34.8%
same,% of mice with 100% inhibition of deep vascular layer,[1],2.2%
same,% of mice with >95% inhibition of deep vascular layer,[1],8.7%
same,Percentage of retinas with 0-10% neovascular inhibition,[2],23.9%
same,Percentage of retinas with 10-25% neovascular inhibition,[2],17.4%
same,Percentage of retinas with 25-50% neovascular inhibition,[2],15.2%
same,Percentage of retinas with 50-75% neovascular inhibition,[2],8.7%
same,Percentage of retinas with 100% neovascular inhibition,[2],2.2%
same,Percentage of retinas with >75% neovascular inhibition,[2],34.8%
same,Percentage of retinas with >90% neovascular inhibition,[2],8.7%
same,Percentage of retinas with 0-10% neovascular inhibition,[3],50%
same,Percentage of retinas with 10-25% neovascular inhibition,[3],37.5%
same,Percentage of retinas with 25-50% neovascular inhibition,[3],12.5%
same,Percentage of retinas with 50-75% neovascular inhibition,[3],0%
same,Percentage of retinas with 100% neovascular inhibition,[3],0%
same,Percentage of retinas with >75% neovascular inhibition,[3],0%
same,Percentage of retinas with >90% neovascular inhibition,[3],0%
same,"retinas that developed a normal, complete deep vascular plexus",monotherapy at optimal dose,24%
same,retinas that exhibited over 75% inhibition,monotherapy at optimal dose,35%
same,efficacy at the 95-100% inhibition level,"with increasing dosages, Examples 10 and 11",≤ 50%
